7 molecules from patent US10941182 (Amgen, dated 2021) can be followed below.

Starred links: 1 amine or outer side, 2 acyl side, 3 side chain; linkers in the order of their positions; H or OH if unused. Non-standard residues stand in square brackets, D forms with d. *: point of attachment. PEG12 = NCCOCCOCCOCCOCCOCCOCCOCCOCCOCCOCCOCCOCCC(=O)O; Oic = O=C(O)[C@@H]1C[C@@H]2CCCC[C@@H]2N1; Phe(4-Cl) = N[C@@H](Cc1ccc(Cl)cc1)C(=O)O; dPhe(4-Cl) = N[C@H](Cc1ccc(Cl)cc1)C(=O)O; γGlu = O=C(O)[C@H](CCC(=O)[*:2])N[*:1]; NMeR = CN[C@@H](CCCNC(=N)N)C(=O)O; Tridecanoyl = CCCCCCCCCCCCC(=O)*; hArg = N=C(N)NCCCC[C@H](N)C(=O)O; Cha = N[C@@H](CC1CCCCC1)C(=O)O; Nle = CCCC[C@H](N)C(=O)O; Orn = NCCC[C@H](N)C(=O)O; AEEA = NCCOCCOCC(=O)O; Aib = CC(C)(N)C(=O)O

Holding throughout (assay): cell-based or functional assay
For assay [1], the target named is T1, human APJ receptor (human, UniProt P35414 1-380).
T1 sequence (looked up): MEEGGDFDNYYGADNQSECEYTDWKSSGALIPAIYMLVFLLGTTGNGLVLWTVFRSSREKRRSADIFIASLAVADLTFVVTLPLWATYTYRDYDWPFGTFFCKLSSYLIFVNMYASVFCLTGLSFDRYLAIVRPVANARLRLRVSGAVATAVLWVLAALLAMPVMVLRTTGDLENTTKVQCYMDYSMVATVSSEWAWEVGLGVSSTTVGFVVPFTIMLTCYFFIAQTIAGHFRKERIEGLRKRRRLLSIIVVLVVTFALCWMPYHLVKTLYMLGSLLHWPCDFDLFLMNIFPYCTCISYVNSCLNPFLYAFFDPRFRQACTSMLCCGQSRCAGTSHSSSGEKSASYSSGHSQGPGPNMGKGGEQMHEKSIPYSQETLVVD

Assay [2] addresses T2, rat APJ receptor (rat, UniProt Q9JHG3 1-377).
T2 sequence (looked up): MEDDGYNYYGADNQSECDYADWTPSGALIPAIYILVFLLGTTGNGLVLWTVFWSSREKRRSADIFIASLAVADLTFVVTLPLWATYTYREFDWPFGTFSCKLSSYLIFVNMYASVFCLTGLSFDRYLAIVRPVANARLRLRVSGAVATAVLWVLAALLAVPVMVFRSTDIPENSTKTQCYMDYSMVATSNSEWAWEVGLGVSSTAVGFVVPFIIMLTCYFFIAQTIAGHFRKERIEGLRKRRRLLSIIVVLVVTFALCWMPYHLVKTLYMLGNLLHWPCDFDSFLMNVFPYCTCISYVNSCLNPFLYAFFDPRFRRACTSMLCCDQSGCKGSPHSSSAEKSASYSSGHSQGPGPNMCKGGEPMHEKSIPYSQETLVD

Assay [3] concerns the target T3, rat APJ receptor (rat, UniProt Q9JHG3 1-377).
T3 sequence (looked up): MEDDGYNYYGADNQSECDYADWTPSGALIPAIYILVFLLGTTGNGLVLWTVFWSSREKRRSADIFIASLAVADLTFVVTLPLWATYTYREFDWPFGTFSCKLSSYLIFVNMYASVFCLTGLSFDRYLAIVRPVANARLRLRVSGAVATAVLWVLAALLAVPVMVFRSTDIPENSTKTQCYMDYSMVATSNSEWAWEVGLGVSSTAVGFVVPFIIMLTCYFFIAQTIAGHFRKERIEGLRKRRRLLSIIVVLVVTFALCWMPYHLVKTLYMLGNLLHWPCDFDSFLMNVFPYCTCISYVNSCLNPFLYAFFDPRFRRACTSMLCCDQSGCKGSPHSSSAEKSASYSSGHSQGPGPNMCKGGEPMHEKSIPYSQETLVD
This is another data set of the same source.

The target in assay [4] is T4, human APJ receptor (human, UniProt P35414 1-380).
T4 sequence (looked up): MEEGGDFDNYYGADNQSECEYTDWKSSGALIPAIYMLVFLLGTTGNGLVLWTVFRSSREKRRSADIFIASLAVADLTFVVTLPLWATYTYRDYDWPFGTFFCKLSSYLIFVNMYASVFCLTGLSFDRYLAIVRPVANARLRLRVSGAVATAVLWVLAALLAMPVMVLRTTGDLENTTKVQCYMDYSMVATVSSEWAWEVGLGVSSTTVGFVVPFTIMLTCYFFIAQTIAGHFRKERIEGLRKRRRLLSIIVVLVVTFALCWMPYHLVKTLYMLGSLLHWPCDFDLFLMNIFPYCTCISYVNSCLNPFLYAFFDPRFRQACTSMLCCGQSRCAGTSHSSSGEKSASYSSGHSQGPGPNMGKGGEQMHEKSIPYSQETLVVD
This is another data set of the same source.

B1: modified apelin polypeptide SEQ ID NO: 539 (peptide)
peptide: Tridecanoyl-[γGlu][PEG12][dQ]RP[NMeR][Cha]SHKG[Oic][Nle][Aib][Phe(4-Cl)]-OH
SMILES: CCCCCCCCCCCCC(=O)N[C@@H](CCC(=O)NCCOCCOCCOCCOCCOCCOCCOCCOCCOCCOCCOCCOCCC(=O)N[C@H](CCC(N)=O)C(=O)N[C@@H](CCCNC(=N)N)C(=O)N1CCC[C@H]1C(=O)N(C)[C@@H](CCCNC(=N)N)C(=O)N[C@@H](CC1CCCCC1)C(=O)N[C@@H](CO)C(=O)N[C@@H](Cc1c[nH]cn1)C(=O)N[C@@H](CCCCN)C(=O)NCC(=O)N1[C@H](C(=O)N[C@@H](CCCC)C(=O)NC(C)(C)C(=O)N[C@@H](Cc2ccc(Cl)cc2)C(=O)O)C[C@@H]2CCCC[C@@H]21)C(=O)O
Consider B1, for which the “EC50 Human APJ Receptor (µM), GTPγS assay” value (shortened to “EC50 Human APJ Receptor (µM)”) with human APJ receptor [1] worked out at 0.000735 µM. In addition, the “EC50 Rat APJ Receptor (µM), GTPγS assay” value in the assay with rat APJ receptor [2] amounted to 0.00354 µM.

B2: modified apelin polypeptide SEQ ID NO: 511 (peptide)
peptide: XXXQRPRLSHKGPXPF
modifications: {TetDDA} [AC4Abu] [Aeea] [Aeea] Q R P [NMeArg] L S H K G P [Nle] P [4-Cl-F] {COOH}: N-terminal tetradecanedioyl (TetDDA)-gammaGlu (AC4Abu)-Aeea-Aeea; NMeArg, Nle, 4-Cl-F non-canonical; free C-terminal acid
As to B2, the “EC50 Rat APJ Receptor (µM), GTPγS assay” value in the assay with rat APJ receptor [2] worked out at 0.000968 µM.

B3: apelin polypeptide SEQ ID NO: 57 (peptide)
peptide: Ac-[Orn]F[hArg][hArg]Q[hArg]P[NMeR][Cha]SHKG[Oic][Nle][Phe(4-Cl)]-OH
SMILES: CCCC[C@H](NC(=O)[C@@H]1C[C@@H]2CCCC[C@@H]2N1C(=O)CNC(=O)[C@H](CCCCN)NC(=O)[C@H](Cc1c[nH]cn1)NC(=O)[C@H](CO)NC(=O)[C@H](CC1CCCCC1)NC(=O)[C@H](CCCNC(=N)N)N(C)C(=O)[C@@H]1CCCN1C(=O)[C@H](CCCCNC(=N)N)NC(=O)[C@H](CCC(N)=O)NC(=O)[C@H](CCCCNC(=N)N)NC(=O)[C@H](CCCCNC(=N)N)NC(=O)[C@H](Cc1ccccc1)NC(=O)[C@H](CCCN)NC(C)=O)C(=O)N[C@@H](Cc1ccc(Cl)cc1)C(=O)O
As to B3, the “EC50 Rat APJ Receptor” value with rat APJ receptor [3] stood at 0.000787 µM. Moreover, in the assay with human APJ receptor [4], the “EC50 Human APJ Receptor” value was found to be 0.000412 µM.

B4: modified apelin polypeptide SEQ ID NO: 341 (peptide)
peptide: Tridecanoyl-[γGlu][AEEA][AEEA]RQRPK[Cha]SA[Nle]G[Oic][Nle]P[Phe(4-Cl)]-OH
SMILES: CCCCCCCCCCCCC(=O)N[C@@H](CCC(=O)NCCOCCOCC(=O)NCCOCCOCC(=O)N[C@@H](CCCNC(=N)N)C(=O)N[C@@H](CCC(N)=O)C(=O)N[C@@H](CCCNC(=N)N)C(=O)N1CCC[C@H]1C(=O)N[C@@H](CCCCN)C(=O)N[C@@H](CC1CCCCC1)C(=O)N[C@@H](CO)C(=O)N[C@@H](C)C(=O)N[C@@H](CCCC)C(=O)NCC(=O)N1[C@H](C(=O)N[C@@H](CCCC)C(=O)N2CCC[C@H]2C(=O)N[C@@H](Cc2ccc(Cl)cc2)C(=O)O)C[C@@H]2CCCC[C@@H]21)C(=O)O
B4: in the assay with human APJ receptor [1], the “EC50 Human APJ Receptor (µM)” value stood at 0.000561 µM. In addition, the “EC50 Rat APJ Receptor (µM), GTPγS assay” value with rat APJ receptor [2] was 0.00127 µM.

B5: modified apelin polypeptide SEQ ID NO: 337 (peptide)
peptide: Tridecanoyl-[γGlu][AEEA][AEEA]RQRPK[Cha]SH[Nle]G[Oic][Nle]P[Phe(4-Cl)]-OH
SMILES: CCCCCCCCCCCCC(=O)N[C@@H](CCC(=O)NCCOCCOCC(=O)NCCOCCOCC(=O)N[C@@H](CCCNC(=N)N)C(=O)N[C@@H](CCC(N)=O)C(=O)N[C@@H](CCCNC(=N)N)C(=O)N1CCC[C@H]1C(=O)N[C@@H](CCCCN)C(=O)N[C@@H](CC1CCCCC1)C(=O)N[C@@H](CO)C(=O)N[C@@H](Cc1c[nH]cn1)C(=O)N[C@@H](CCCC)C(=O)NCC(=O)N1[C@H](C(=O)N[C@@H](CCCC)C(=O)N2CCC[C@H]2C(=O)N[C@@H](Cc2ccc(Cl)cc2)C(=O)O)C[C@@H]2CCCC[C@@H]21)C(=O)O
As for B5, the “EC50 Human APJ Receptor (µM)” value with human APJ receptor [1] was found to be 0.00208 µM. Moreover, in the assay with rat APJ receptor [2], the “EC50 Rat APJ Receptor (µM), GTPγS assay” value is 0.00212 µM.

B6: modified apelin polypeptide SEQ ID NO: 346 (peptide)
peptide: Tridecanoyl-[γGlu][AEEA][AEEA]RQRPK[Cha]AA[Nle]G[Oic][Nle]P[Phe(4-Cl)]-OH
SMILES: CCCCCCCCCCCCC(=O)N[C@@H](CCC(=O)NCCOCCOCC(=O)NCCOCCOCC(=O)N[C@@H](CCCNC(=N)N)C(=O)N[C@@H](CCC(N)=O)C(=O)N[C@@H](CCCNC(=N)N)C(=O)N1CCC[C@H]1C(=O)N[C@@H](CCCCN)C(=O)N[C@@H](CC1CCCCC1)C(=O)N[C@@H](C)C(=O)N[C@@H](C)C(=O)N[C@@H](CCCC)C(=O)NCC(=O)N1[C@H](C(=O)N[C@@H](CCCC)C(=O)N2CCC[C@H]2C(=O)N[C@@H](Cc2ccc(Cl)cc2)C(=O)O)C[C@@H]2CCCC[C@@H]21)C(=O)O
For the molecule B6, in the assay with human APJ receptor [1], the “EC50 Human APJ Receptor (µM)” value was 0.00277 µM. Also, in the assay with rat APJ receptor [2], the “EC50 Rat APJ Receptor (µM), GTPγS assay” value is 0.00246 µM.

B7: apelin polypeptide SEQ ID NO: 55 (peptide)
peptide: Ac-[dQ][hArg]P[NMeR][Cha]SHKG[Oic][Nle]P[dPhe(4-Cl)]-OH
SMILES: CCCC[C@H](NC(=O)[C@@H]1C[C@@H]2CCCC[C@@H]2N1C(=O)CNC(=O)[C@H](CCCCN)NC(=O)[C@H](Cc1c[nH]cn1)NC(=O)[C@H](CO)NC(=O)[C@H](CC1CCCCC1)NC(=O)[C@H](CCCNC(=N)N)N(C)C(=O)[C@@H]1CCCN1C(=O)[C@H](CCCCNC(=N)N)NC(=O)[C@@H](CCC(N)=O)NC(C)=O)C(=O)N1CCC[C@H]1C(=O)N[C@H](Cc1ccc(Cl)cc1)C(=O)O
Regarding B7, the “EC50 Rat APJ Receptor” value with rat APJ receptor [3] is 0.145 µM. For the same molecule, in the assay with human APJ receptor [4], the “EC50 Human APJ Receptor” value came to 0.0316 µM.
